Data taken from patent publication US20240207319A1 (LUDWIG INSTITUTE FOR CANCER RESEARCH, published 2024).
Residue numbers refer to the chain shown, from its start.

B1: PD1_4XMUT_M70 (with 6xHis), soluble monomeric PD1 decoy variant (bacterial production) (receptor)
chain: MASDSPDRPWNPPTFSPALLVVTEGDNATFTCSFSNTSESFVLNWYRMSPSNQDDRLAAFPEDRSQPGQDARFRVTQLPNGRDFHMSVVRARRNDSGTYFCGAISLAPKAKIKESLRAELRVTERRALEHHHHHH
B2: PD1_6XDM (with 6xHis), soluble monomeric PD1 decoy variant (bacterial production) (receptor)
chain: B1 chain with D54V, A110W
notes: also called 6×DM; variant 6×DM

Biological target: human PDL1 protein (plate-coated) (human, UniProt Q9NZQ7 19-238, limits assumed)
Test: titration ELISA, soluble monomeric decoy on plates coated with human PDL1 protein, anti-His tag detection
Procedure: FIGS. 9A, 9B, 9C, and 9D are a set of diagrams showing characterization of PD-1 decoy variants and hCD8+ T cells transduced with the PD-1 decoy variants and tEGFR. […] Bound PD1 decoy molecules were detected with an anti-His tag antibody. […] The engineered T cells were co-cultured at a 1:1 ratio with different PD-L1⁺ target tumor cells (100,000 of each cell type) for 48 hours. NA8 and HLA/A2+NY-ESO-1−, SAOS2, and A375 are HLA/A2+ NY-ESO-1+. The supernatants were collected after 48 hours, diluted 1 in 25, and evaluated for the presence of IFNγ using a commercial ELISA kit from Thermo). […] CD8 T cells engineered with PD1 decoy_tEGFR retrovirus were labeled with chromium. The engineered T cells were co-cultured with anti-EGFR Ab and co-cultured with different ratios of PBMCs from the same donor. The negative control is NT (non-transduced) T cells Killing evaluated at 4 hours. As positive control, T cells were treated with HCl.

human PDL1 protein (plate-coated), sequence (Q9NZQ7 19-238 limits assumed): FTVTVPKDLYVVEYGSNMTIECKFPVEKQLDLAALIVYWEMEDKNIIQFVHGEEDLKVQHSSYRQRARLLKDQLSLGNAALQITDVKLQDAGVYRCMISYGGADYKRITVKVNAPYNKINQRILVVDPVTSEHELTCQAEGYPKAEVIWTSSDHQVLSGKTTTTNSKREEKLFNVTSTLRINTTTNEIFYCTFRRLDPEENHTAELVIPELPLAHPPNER

Row | Binder | fold better binding than the WT PD1 decoy
1 | B1 | 10 fold
2 | B2 | ~7.5 fold
